The Human Domainome abundance scans (Beltran et al. 2025)
± gives the uncertainty stated by the source.

B1: Serine/threonine-protein kinase A-Raf, residues 21 to 89; numbered along this chain, P10398 (parent)
chain: VKVYLPNKQRTVVTVRDGMSVYDSLDKALKVRGLNQDCCVVYRLIKGRKTVTAWDTAIAPLDGEELIVE

Variants of: B1
Assay: abundance fitness (aPCA) (normalised: wild type 0, dead -1); higher = more abundant; growth selection in yeast, the domain comes from the species named
Settings: Homo sapiens
Work on R48C yielded an abundance fitness of -0.366 ± 0.15.
In the case of R48W, the abundance fitness is reported as -0.535 ± 0.082.
Work on R48S yielded an abundance fitness of -0.288 ± 0.069.
R48V gave an abundance fitness of 0.05 ± 0.07.
With R48M the abundance fitness was -0.183 ± 0.1.
R48F showed an abundance fitness of -0.216 ± 0.18.
Work on R48Q yielded an abundance fitness of -0.094 ± 0.095.
With R48G the abundance fitness was -0.479 ± 0.056.
For R48K, the abundance fitness was 0.097 ± 0.085.
Work on R48H yielded an abundance fitness of -0.025 ± 0.38.
In the case of R48D, the abundance fitness is reported as -0.271 ± 0.094.
With R48P the abundance fitness was -0.474 ± 0.16.
For R48L, the abundance fitness was -0.307 ± 0.062.
In the case of R48A, the abundance fitness is reported as -0.128 ± 0.06.
Work on R48E yielded an abundance fitness of 0.025 ± 0.087.
R48T showed an abundance fitness of -0.072 ± 0.1.
With A53E the abundance fitness was 0.08 ± 0.072.
Variant A53G has an abundance fitness of -0.033 ± 0.057.
With A53S the abundance fitness was -0.058 ± 0.056.
Variant A53D has an abundance fitness of -0.03 ± 0.14.
A53P gave an abundance fitness of 0.032 ± 0.075.
A53C showed an abundance fitness of -0.166 ± 0.11.
A53R showed an abundance fitness of -0.149 ± 0.056.
Work on A53Y yielded an abundance fitness of -0.377 ± 0.15.
A53N showed an abundance fitness of -0.257 ± 0.13.
For A53H, the abundance fitness was -0.098 ± 0.07.
Variant A53M has an abundance fitness of -0.549 ± 0.14.
A53K gave an abundance fitness of -0.079 ± 0.06.
In the case of A53T, the abundance fitness is reported as -0.127 ± 0.085.
Variant A53Q has an abundance fitness of -0.078 ± 0.064.
A53L showed an abundance fitness of -0.455 ± 0.075.
For A53W, the abundance fitness was -0.728 ± 0.084.
In the case of G47W, the abundance fitness is reported as -0.888 ± 0.17.
K49E showed an abundance fitness of -0.847 ± 0.2.
In the case of K49P, the abundance fitness is reported as -0.445 ± 0.092.
Work on K49H yielded an abundance fitness of -0.551 ± 0.14.
K49R gave an abundance fitness of -0.135 ± 0.049.
Work on K49Y yielded an abundance fitness of -0.668 ± 0.19.
Variant K49F has an abundance fitness of -0.63 ± 0.22.
K49T showed an abundance fitness of -0.968 ± 0.19.
In the case of K49Q, the abundance fitness is reported as -0.566 ± 0.13.
In the case of K49M, the abundance fitness is reported as -0.22 ± 0.095.
Work on K49S yielded an abundance fitness of -0.8 ± 0.11.
Variant K49A has an abundance fitness of -0.516 ± 0.083.
K49G gave an abundance fitness of -0.863 ± 0.097.
For K49V, the abundance fitness was -0.934 ± 0.17.
K49D showed an abundance fitness of -0.804 ± 0.28.
K49L showed an abundance fitness of -0.331 ± 0.039.
With K49C the abundance fitness was -0.672 ± 0.34.
With W54G the abundance fitness was -1.03 ± 0.14.
Work on W54S yielded an abundance fitness of -0.808 ± 0.14.
Variant W54K has an abundance fitness of -0.843 ± 0.13.
Work on W54F yielded an abundance fitness of -0.89 ± 0.29.
With W54M the abundance fitness was -0.499 ± 0.1.
W54E showed an abundance fitness of -0.96 ± 0.13.
W54Q showed an abundance fitness of -0.916 ± 0.16.
W54T gave an abundance fitness of -0.797 ± 0.14.
W54N showed an abundance fitness of -0.917 ± 0.24.
In the case of W54D, the abundance fitness is reported as -0.743 ± 0.33.
For W54P, the abundance fitness was -0.924 ± 0.14.
Variant W54V has an abundance fitness of -0.913 ± 0.14.
In the case of W54R, the abundance fitness is reported as -0.879 ± 0.1.
Variant W54Y has an abundance fitness of -0.756 ± 0.2.
With T56Y the abundance fitness was -0.225 ± 0.075.
For T56D, the abundance fitness was -0.069 ± 0.069.
T56K showed an abundance fitness of -0.153 ± 0.049.
With T56I the abundance fitness was -0.47 ± 0.099.
In the case of T56H, the abundance fitness is reported as -0.151 ± 0.086.
With T56V the abundance fitness was -0.235 ± 0.034.
In the case of T56F, the abundance fitness is reported as -0.693 ± 0.17.
T56P showed an abundance fitness of -0.614 ± 0.11.
T56S gave an abundance fitness of -0.009 ± 0.038.
For T56M, the abundance fitness was -0.095 ± 0.039.
T56R gave an abundance fitness of -0.276 ± 0.029.
Variant T56L has an abundance fitness of -0.253 ± 0.031.
With T56C the abundance fitness was -0.09 ± 0.085.
In the case of T56E, the abundance fitness is reported as 0.106 ± 0.037.
In the case of T56G, the abundance fitness is reported as -0.21 ± 0.052.
With T56A the abundance fitness was 0.021 ± 0.047.
For T56N, the abundance fitness was -0.278 ± 0.3.
D55G showed an abundance fitness of -0.204 ± 0.029.
With D55C the abundance fitness was -0.52 ± 0.087.
Work on D55T yielded an abundance fitness of -0.335 ± 0.053.
D55L showed an abundance fitness of -0.908 ± 0.076.
D55R showed an abundance fitness of -0.343 ± 0.025.
Variant D55F has an abundance fitness of -0.872 ± 0.13.
Work on D55Y yielded an abundance fitness of -0.648 ± 0.15.
With D55N the abundance fitness was -0.098 ± 0.06.
D55Q showed an abundance fitness of -0.024 ± 0.045.
Variant D55A has an abundance fitness of -0.346 ± 0.041.
D55H gave an abundance fitness of -0.234 ± 0.087.
D55M showed an abundance fitness of -0.557 ± 0.064.
In the case of D55K, the abundance fitness is reported as -0.347 ± 0.051.
Variant D55E has an abundance fitness of -0.089 ± 0.036.
D55P showed an abundance fitness of -0.852 ± 0.099.
Work on D55I yielded an abundance fitness of -0.452 ± 0.14.
D55S gave an abundance fitness of -0.168 ± 0.036.
D55V gave an abundance fitness of -0.773 ± 0.062.
Work on T50V yielded an abundance fitness of 0.362 ± 0.18.
With T50P the abundance fitness was -0.715 ± 0.21.
For T50A, the abundance fitness was -0.227 ± 0.31.
For T50S, the abundance fitness was -0.402 ± 0.18.
Variant T50R has an abundance fitness of -0.173 ± 0.35.
For T50E, the abundance fitness was -0.515 ± 0.38.
For A59C, the abundance fitness was -0.188 ± 0.11.
For A59W, the abundance fitness was -0.14 ± 0.065.
A59M showed an abundance fitness of 0.078 ± 0.06.
Work on A59S yielded an abundance fitness of 0.002 ± 0.027.
A59T showed an abundance fitness of 0.054 ± 0.058.
A59D gave an abundance fitness of -0.08 ± 0.11.
For A59K, the abundance fitness was -0.076 ± 0.067.
In the case of A59I, the abundance fitness is reported as 0.131 ± 0.1.
With A59Q the abundance fitness was -0.008 ± 0.086.
A59E gave an abundance fitness of -0.068 ± 0.067.
With A59N the abundance fitness was -0.366 ± 0.21.
In the case of A59L, the abundance fitness is reported as -0.071 ± 0.049.
With A59P the abundance fitness was -0.646 ± 0.12.
In the case of A59Y, the abundance fitness is reported as 0.01 ± 0.44.
Work on A59R yielded an abundance fitness of -0.007 ± 0.043.
Variant A59V has an abundance fitness of -0.122 ± 0.041.
A59G gave an abundance fitness of 0.017 ± 0.049.
In the case of A59F, the abundance fitness is reported as -0.015 ± 0.12.
For T52V, the abundance fitness was 0.117 ± 0.059.
Work on T52S yielded an abundance fitness of -0.567 ± 0.071.
T52F showed an abundance fitness of -0.708 ± 0.29.
For T52M, the abundance fitness was 0.118 ± 0.05.
In the case of T52L, the abundance fitness is reported as 0.052 ± 0.047.
With T52C the abundance fitness was -0.161 ± 0.11.
Work on T52W yielded an abundance fitness of -0.31 ± 0.052.
Variant T52H has an abundance fitness of -0.625 ± 0.21.
In the case of T52D, the abundance fitness is reported as -0.978 ± 0.26.
T52K gave an abundance fitness of -0.356 ± 0.072.
For T52R, the abundance fitness was -0.529 ± 0.063.
T52Q gave an abundance fitness of -0.317 ± 0.089.
With T52P the abundance fitness was -1.04 ± 0.2.
T52I gave an abundance fitness of 0.141 ± 0.17.
Work on T52A yielded an abundance fitness of -0.174 ± 0.062.
In the case of T52Y, the abundance fitness is reported as -0.188 ± 0.11.
Work on T52G yielded an abundance fitness of -0.956 ± 0.11.
Variant V51P has an abundance fitness of 0.031 ± 0.077.
V51K gave an abundance fitness of -0.001 ± 0.076.
V51M showed an abundance fitness of 0.093 ± 0.07.
With V51G the abundance fitness was -0.662 ± 0.11.
Variant V51Q has an abundance fitness of -0.032 ± 0.064.
For V51L, the abundance fitness was 0.026 ± 0.046.
V51R showed an abundance fitness of -0.002 ± 0.042.
In the case of V51H, the abundance fitness is reported as -0.156 ± 0.22.
V51T gave an abundance fitness of -0.324 ± 0.15.
In the case of V51A, the abundance fitness is reported as -0.102 ± 0.068.
For V51I, the abundance fitness was 0.102 ± 0.13.
Work on V51Y yielded an abundance fitness of -0.255 ± 0.2.
Work on V51E yielded an abundance fitness of -0.128 ± 0.064.
I58A showed an abundance fitness of -0.201 ± 0.085.
Work on I58T yielded an abundance fitness of -0.729 ± 0.097.
Variant I58V has an abundance fitness of -0.185 ± 0.049.
Work on I58D yielded an abundance fitness of -0.881 ± 0.34.
For I58C, the abundance fitness was -0.001 ± 0.083.
For I58G, the abundance fitness was -0.725 ± 0.094.
In the case of I58F, the abundance fitness is reported as -0.021 ± 0.12.
For I58N, the abundance fitness was -0.858 ± 0.45.
In the case of I58Q, the abundance fitness is reported as -0.952 ± 0.2.
I58S showed an abundance fitness of -0.278 ± 0.068.
With I58L the abundance fitness was -0.015 ± 0.039.
I58P gave an abundance fitness of -0.872 ± 0.21.
For I58K, the abundance fitness was -0.86 ± 0.21.
In the case of I58Y, the abundance fitness is reported as 0.146 ± 0.088.
In the case of I58M, the abundance fitness is reported as -0.004 ± 0.065.
